Source: patent US20100221179A1

T1: recombinant human IL-1α (human) (UniProt P01583)
T1 sequence: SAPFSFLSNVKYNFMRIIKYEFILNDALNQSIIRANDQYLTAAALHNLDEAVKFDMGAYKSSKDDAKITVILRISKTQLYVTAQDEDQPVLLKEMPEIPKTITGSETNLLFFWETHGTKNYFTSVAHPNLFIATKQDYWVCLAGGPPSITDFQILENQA


Assays:
[1] = molecular target: T1, recombinant human IL-1α (human); experiment: SPR (Biacore), antibody captured, IL-1α in solution
[2] = molecular target: T1, recombinant human IL-1α (human); experiment: cell-based or functional assay

Binder | Kd [1] [nM] | Neutralization Potency (IC50, pM), MRC-5 bioassay (IL-8 production) [2] [pM]
humanized anti-human IL-1α antibody H3D12.8 (antibody, from a related filing, human IgG1, V domains shown) VH: EIQLVQSGSELKKPGASVKVSCKASGYTFTNYGMNWVRQAPGQDLERMAWINTYTGESTYADDFKGRFVFSLDTSVSTAYLQISSLKAEDTAVYFCARGIYYYGSSYAMDYWGQGTTVTVSS VL: DIQMTQSPSSLSASVGDRVTITCRASQDISNCLNWYQQKPGKTPKLLIYYTSRLHSGVPSRFSGSGSGTDYTFTISSLQPEDIATYFCQQGKTLPYAFGQGTKLEIK | 1.35 | 1950
humanized anti-human IL-1α antibody H3D12.r10 (antibody, from a related filing, human IgG1, V domains shown) VH: EIQLVQSGAEVKKPGASVKVSCKASGYTFAHYGMNWVRQAPGQGLEWMGWINTYTGQSTYADDFKGRFTFTLDTSTSTAYMELSSLRSEDTAVYYCARGIYYFGSNYAMDYWGQGTTVTVSS VL: DIQMTQSPSSLSASVGDRVTITCRASQDISNMLNWYQQKPGKTPKLLIYYTSRLRSGVPSRFSGSGSGTDYTFTISSLQPEDIATYFCQQGKKPPYTFGQGTKLEIK | 0.032 | 0.6
humanized anti-human IL-1α antibody H3D12.16 (antibody, from a related filing, human IgG1, V domains shown) VH: EIQLVQSGAEVKKPGASVKVSCKASGYTFTNYGMNWVRQAPGQDLERMAWINTYTGESTYADDFKGRFTFTLDTSTSTAYMELSSLRSEDTAVYFCARGIYYYGSSYAMDYWGQGTTVTVSS VL: DIQMTQSPSSLSASVGDRVTITCRASQDISNCLNWYQQKPGKTPKLLIYYTSRLHSGVPSRFSGSGSGTDYTFTISSLQPEDIATYFCQQGKTLPYAFGQGTKLEIK | 2.09 | 1360
anti-human IL-1α monoclonal antibody 3D12 (antibody, from a related filing, V domains shown) VH: QIQLVQSGPELKKPGETVKISCKASGYTFRNYGMNWVKQAPGKDLKRMAWINTYTGESTYADDFKGRFAFSLETSASTAYLQINNLKNEDTATYFCARGIYYYGSSYAMDYWGQGTSVTVSS VL: IQMTQTTSSLSASLGDRVTISCRASQDISNCLNWYQQKPDGTVKLLIYYTSRLHSGVPSRFSGSGSGTDYSLTISNLEQEDIATYFCQQGKTLPYAFGGGTKLEINR | 1.34 | 1880

The remaining lines, values ahead:

Kd [1] [nM] | Neutralization Potency (IC50, pM), MRC-5 bioassay (IL-8 production) [2] [pM] | Binder
0.031 | 0.6 | humanized anti-human IL-1α antibody H3D12.r16 (antibody, from a related filing, human IgG1, V domains shown) VH: EVQLVQSGAEVKKPGASVKVSCKASGYTFKYYGMNWVRQAPGQGLERMGWINTYTGQSTYADDFKGRVTFTLDTSTSTAYMELSSLRSEDTAVYYCARDIYYYGSDFAMDYWGQGTTVTVSS VL: DIQMTQSPSSLSASVGDRVTITCRASQDISNMLNWYQQKPGKAPKLLIYYTSRLKPGVPSRFSGSGSGTDYTFTISSLQPEDIATYFCQQGKTAPYTFGQGTKLEIK
0.028 | 1.4 | humanized anti-human IL-1α antibody H3D12.r37 (antibody, from a related filing, human IgG1, V domains shown) VH: EIQLVQSGAEVKKPGASVKVSCKASGYTFKYYGMNWVRQAPGQGLERMGWINTYTGESRYADDFKGRVTFTLDTSTSTAYMELSSLRSEDTAVYYCARDIYYFGSDYAMDYWGQGTTVTVSS VL: DIQMTQSPSSLSASVGDRVTITCRASQDISNRLNWYQQKPGKAPKLLIYYASRLKPGVPSRFSGSGSGTDYTFTISSLQPEDIATYFCQQGNTPPYTFGQGTKLEIK
